No end group written: not given here.

The text below walks through data of patent US20210220432A1, “Application of Polypeptide in Preparation of Composition for Preventing and Treating Human Papillomavirus Infection” (GENLOCI BIOTECHNOLOGIES INC., priority 2018, published 2021).

The target of one assay is T1, HPV-16 L1 protein (Human papillomavirus type 16, UniProt P03101).
T1 construct: purchased Abcam ab119880
As to the kind of experiment: Biomolecular interaction analysis (SPR, Biacore 3000) of the polypeptide with HPV-16 L1 protein. In kind it is binding. The source says: Biomolecular interaction analysis (BIA) is a biosensing analysis technology based on a physical optical phenomenon known as surface plasmon resonance (SPR). BIA can provide real-time observation of the interaction between biomolecules, through which, the binding specificity of two molecules can be observed, how strong the binding of the two molecules is can be known, and how many cooperators and participants there are in the binding process of biomolecules can be known.
In this experiment, BIA technology is used to observe whether there is an interaction between the polypeptide of the present invention and the HPV L1 protein, so as to explore the mechanism of inhibiting HPV virus by the polypeptide.
3. […]
(5) The coupling effect is automatically calculated by the software. In the experiment, the experimental channel is finally coupled with about 5300 RU of HPV-16 L1 Protein, where the unit RU is the unit of coupling quantity defined by the system. […]
(8) The program is designed according to the steps of equilibration, testing, equilibration, and regeneration, and the polypeptide solution of each concentration was detected. […] During the detection, the sample passes through the blank channel and the experimental channel in turn, and the data to be detected is the resultant difference of “experimental channel response value minus blank channel response value”. […]

The next assay deals with HPV. The conditions noted are these: literature study; HD6 at the highest cytotoxic dose; cited from earlier work.
The target in assay [1] is T2, HPV-16 L1 protein (Cat. No. ab119880, Abcam), recombinantly expressed (human papillomavirus type 16), P03101.
T2 chain: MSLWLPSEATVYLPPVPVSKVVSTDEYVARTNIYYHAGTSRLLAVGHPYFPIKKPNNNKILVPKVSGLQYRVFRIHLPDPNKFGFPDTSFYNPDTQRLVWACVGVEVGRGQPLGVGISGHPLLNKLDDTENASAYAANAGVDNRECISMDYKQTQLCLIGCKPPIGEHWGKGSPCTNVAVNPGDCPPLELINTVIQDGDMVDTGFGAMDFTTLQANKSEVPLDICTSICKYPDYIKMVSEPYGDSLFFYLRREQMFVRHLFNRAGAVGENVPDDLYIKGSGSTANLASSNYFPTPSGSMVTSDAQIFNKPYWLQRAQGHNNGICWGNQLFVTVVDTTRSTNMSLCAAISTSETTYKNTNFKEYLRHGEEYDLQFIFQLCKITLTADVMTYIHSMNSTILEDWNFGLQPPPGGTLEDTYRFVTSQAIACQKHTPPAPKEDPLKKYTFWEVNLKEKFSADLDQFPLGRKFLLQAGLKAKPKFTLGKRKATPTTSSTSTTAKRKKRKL
In words: SPR, Biacore 3000, HPV-16 L1 amine-coupled on chip, polypeptide as analyte.

MGRFKRFRKKFKKLFKKLS [The polypeptide] yielded a Kd at HPV-16 L1 protein (KD, Affinity constant, SPR, kinetic analysis, HPV-16 L1 protein) of 0.782 nM. The kon at HPV-16 L1 protein (read-out: ka, Binding constant) was determined as 2.35e+06 M⁻¹ s⁻¹. In the case of “HD6: human α-defensin secreted by human Paneth cells (AFTCHCRRSCYSTEYSYGTCTVMGINHRFCCL; ends and bridges not checked; cysteine pairing not given here; UniProt Q01524 69-100, looked up) [reference compound]”, the “Activity against HPV” value in the assay on HPV is “inactive”.

B1: the polypeptide of the present invention (antimicrobial polypeptide, SEQ ID NO: 1) (peptide)
peptide: MGRFKRFRKKFKKLFKKLS
modifications: not checked
On to B1, for which, in assay [1], the dissociation constant (Kd) came to 0.782 nM, the koff is 0.00184 s⁻¹ and the kon came to 2.35e+06 M⁻¹ s⁻¹.

B2: HD5: human α-defensin secreted by human Paneth cells (peptide, UniProt Q01523 20-94, looked up)
Defensin alpha 5: ESLQERADEATTQKQSGEDNQDLAISFAGNGLSALRTSGSQARATCYCRTGRCATRESLSGVCEISGRLYRLCCR
modifications: Defensin-5
notes: human α-defensin secreted by human Paneth cells
Regarding B2, in the assay on HPV, the “Activity against HPV” value is on record as “inhibiting HPV activity”.
